From publication PMC2804184

Target: p97 C-terminal peptide (last 10 residues, …), N-terminally labeled with fluorescein
Assay: fluorescence polarisation

Substance: PLAA C-terminal PUL domain (residues 454-738) (domain or fragment)
- Kd: 5 µM
